Results published in article PMC8131360, “Phospholipid translocation captured in a bifunctional membrane protein MprF” (Nature Communications, 2021).

Biological target: the molecule itself
Assay: cryo-EM structure; full-length RtMprF purified in β-DDM or GDN, reconstituted with POPG and MSP1E3D1 (1:2:100) in lipid nanodiscs; 20 mM Tris-HCl pH 7.5, 300 mM NaCl; single-particle analysis, C2 symmetry imposed

B1: Multiple Peptide Resistance Factor from Rhizobium tropici (RtMprF) (natural protein, UniProt A0A6P1C618 1-869, looked up)
chain: MSSPIDLESADEELEERGGIVGLLNRYRALIVAVLTVAVFCIAAYAIYDLTTEVRYDDVVHALTTTKISSVLLALLFTGLSFASLIFYDQNALEYIGKRLPFPHVALTSFSAYAVGNTAGFGALSAGAIRYRAYTRLGLSPDDITRVIAFVTLAFGLGLASVGAMALLVIADEIGPLISVDGLWLRLIAIAILAALAFVVYAGRNGREVRIGPVAVRLPDSRTWSRQFLVTAFDIAASASVLYVLLPETSIGWPGFFAIYAIAVGLGVLSHVPAGFGVFETIIIAWLGSSVNEDAVLSSLVLYRVIYNVIPLVIAIAAISVAELRRFVDHPVASSMRRIGARLMPQLLSAFALLLGMMLVFSSVTPTPDHNLIVLSDYLPLSLVESAHFLSSLLGLAIIVAARGLSQRLDGAWWVSTFSALFALFFSLLKAIAIVEAGLLAFFVFSLVVSRRLFKRPASLLNQTLTAGWLTAIAVVCIGAIVVLFFVYRDVGYSNELWWQFEFADEAPRGLRAALGISIVSSAIAIFSLLRPATKRPEPVSDDAVARAVEIVRKQGVADANLVRMGDKSIMFSEKGDAFIMYGKQGRSWIALFDPVGPRQALPDLIWRFVETARAAGCRSVFYQISPALLSYCADAGLRAFKLGELAVVNLANFELKGGKWANLRQTASRAVRDGLEFAVIEPQDIPDVLDQLAHVSDTWLADHNAKEKSFSLGAFDPDYVCSQPVGVLKKDGKIVAFANILMTETKEEGSVDLMRFSPDAPKGSMDFLFVQILEYLKGEGFQRFNLGMAPLSGMSRRESAPVWDRVGGTVFEHGERFYNFKGLRAFKSKFHPEWQPRYLAVSGGVSPMIALMDATFLIGGGLKGVVRK
notes: MprF (mprF gene) from Rhizobium tropici, full-length protein of 869 amino acid residues; flippase domain (Subdomain 1 Leu24-Arg325, Subdomain 2 Ser334-Arg530) and synthase domain (Pro539-Gly860); also called RtMprF(DDM); RtMprF(GDN); source: E. coli C41(DE3), pET21b; purified (Ni-NTA in β-DDM or GDN) and reconstituted in POPG/MSP1E3D1 nanodiscs (Ni-NTA, SEC); also unpurified, in the E. coli …
stoichiometry N: 2
